Laboratory results reported in the supplement of paper PMC10724198.
± gives the standard deviation of the averaged measurements.

These sequences were tested on Saccharomyces cerevisiae (assay: protein stability index of tFT-peptide fusion (C-terminal peptide) (PSI (0-1 scale)); higher = more stable (slower turnover)). Details: genetic background: wild type; temperature: 30 C.
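Further: PSI is a weighted mean of sequencing reads over stability bins, variants kept only with over 10 reads, mCherry proximal and sfGFP distal, peptide attached via GGGS linker.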

| Sequence | protein stability index |
| --- | --- |
| SSPRANAYASCP | 0.726 ± 0.16 |
| SSPSSFLTLLFI | 0.621 ± 0.069 |
| SSRLVFFLPSLR | 0.6966 ± 0.0022 |
| SSRPLYLFSALR | 0.689 ± 0.053 |
| SSRTFRFRPPTI | 0.702 ± 0.01 |
| SSRWSMEHMAAW | 0.715 ± 0.059 |
| SSSACNMPVVRL | 0.705 ± 0.05 |
| SSSCRPVSSAIV | 0.651 ± 0.089 |
| SSSLLFVLGPSW | 0.715 ± 0.034 |
| SSSLRLCSCAGQ | 0.723 ± 0.049 |
| SSSRCPRLPLPS | 0.6358 ± 0.0012 |
| SSSVLPESFSPS | 0.687 ± 0.036 |
| SSSYCHPSCVSC | 0.661 ± 0.14 |
| SSTALAFAPYLL | 0.6894 ± 0.005 |
| SSTEYYDIRKIR | 0.675 ± 0.025 |
| SSTFPRPSLRPV | 0.64 ± 0.091 |
| SSVRIGRNLYVW | 0.754 ± 0.13 |
| SSVRPHPAPPHT | 0.701 ± 0.01 |
| SSVSARHVPCSP | 0.689 ± 0.027 |
| SSVSRIYTPSSL | 0.677 ± 0.12 |
| SSVYLRRSCDHD | 0.699 ± 0.017 |
| SSWEMMLYRLTE | 0.693 ± 0.021 |
| STCRCGGFRNGS | 0.762 ± 0.068 |

| Sequence | protein stability index |
| --- | --- |
| STEHAPDLKSER | 0.695 ± 0.077 |
| STEIHIKLNAWT | 0.687 ± 0.082 |
| STGRLQLGNCLT | 0.635 ± 0.015 |
| STLSSRLSLPYR | 0.728 ± 0.07 |
| STPDIRYFPPWC | 0.706 ± 0.027 |
| STPLPPLSLPLF | 0.685 ± 0.016 |
| STQDIRTTKRVA | 0.681 ± 0.077 |
| STRTNPSYFTYQ | 0.675 ± 0.013 |
| STTIRTPSGMFR | 0.661 ± 0.0057 |
| STTPASLLGHVF | 0.6441 ± 0.0061 |
| STVLGPPLGLGT | 0.69 ± 0.054 |
| STVPSLVAGATF | 0.729 ± 0.11 |
| SVARGGGVVEWG | 0.705 ± 0.13 |
| SVATFDLHAGEW | 0.75 ± 0.01 |
| SVAVTGSTLVLI | 0.628 ± 0.036 |
| SVCLRASSCFRS | 0.648 ± 0.051 |
| SVCPQALNLPPH | 0.723 ± 0.043 |
| SVFSVVLSLSGS | 0.706 ± 0.051 |
| SVGGILWLMLEG | 0.677 ± 0.044 |
| SVIFSRSFCCPS | 0.639 ± 0.11 |
| SVLCRIGAGCAM | 0.629 ± 0.018 |
| SVLEGGRWGFTR | 0.758 ± 0.038 |
| SVLFDIGFSCRF | 0.808 ± 0.026 |

| Sequence | protein stability index |
| --- | --- |
| SVLLRPPLLFHP | 0.722 ± 0.019 |
| SVLPELHAVPLF | 0.679 ± 0.008 |
| SVQWPITIEVWK | 0.631 ± 0.014 |
| SVRFPPTFTMTL | 0.701 ± 0.042 |
| SVSNSRCGRLML | 0.71 ± 0.046 |
| SVSPRAPPILPP | 0.723 ± 0.058 |
| SVSPRVSSLSPL | 0.671 ± 0.013 |
| SVSRTARELREV | 0.65902 ± 0.00035 |
| SVVGRLVGGFRW | 0.706 ± 0.021 |
| SVVSFIRRRSFL | 0.8656 ± 0.0084 |
| SVYLIRSLEALR | 0.679 ± 0.019 |
| SWFCSWVVRFFR | 0.691 ± 0.065 |
| SWLRPTCLDLYF | 0.76 ± 0.029 |
| SWSRAAYKGPWG | 0.702 ± 0.015 |
| SWTGDGWMWRRR | 0.658 ± 0.019 |
| SYESKPPLSWDS | 0.73 ± 0.11 |
| SYGIETRLKGKK | 0.63 ± 0.082 |
| SYKSLGLVEFRV | 0.712 ± 0.054 |
| SYSSRSCALRVI | 0.533 ± 0.043 |
| TAGAYSLSTGNH | 0.651 ± 0.024 |
| TALSPPVPTLPP | 0.7 ± 0.013 |
| TARPDKDYPRLA | 0.678 ± 0.013 |
| TARPPSPPSTRL | 0.732 ± 0.036 |

| Sequence | protein stability index |
| --- | --- |
| TASLSPSHRFYS | 0.66863 ± 0.00061 |
| TATPQRQPHKSP | 0.706 ± 0.013 |
| TATRIPHTPIPL | 0.732 ± 0.037 |
| TAVIRASRFEEI | 0.672 ± 0.0055 |
| TAWVDSMVCMLL | 0.71 ± 0.034 |
| TCDSGSEDNVAA | 0.7053 ± 0.0032 |
| TCERGGQIKCRV | 0.657 ± 0.058 |
| TCLWVCARGFGG | 0.693 ± 0.021 |
| TCNWQGASSIIG | 0.6765 ± 0.0033 |
| TDFAVTKDFTEI | 0.683 ± 0.033 |
| TDTCLQDCLVFV | 0.546 ± 0.039 |
| TECGKVGGGGEA | 0.689 ± 0.062 |
| TECGVRRGLVGR | 0.651 ± 0.025 |
| TEKTEAKNCNTK | 0.697 ± 0.0089 |
| TFLFARLSFCKH | 0.613 ± 0.0071 |
| TFRADGYFFGRR | 0.637 ± 0.042 |
| TGCEVSINSCVE | 0.656 ± 0.046 |
| TGDFFGGLGTWS | 0.701 ± 0.016 |
| TGGESEPRDTIQ | 0.701 ± 0.017 |
| TGKQNRYVKKEK | 0.6955 ± 0.0031 |
| TGLLLGLFGCML | 0.648 ± 0.068 |
| TGLSFIRCLDFK | 0.688 ± 0.055 |
| TGMRRLPGEVCV | 0.581 ± 0.017 |

| Sequence | protein stability index |
| --- | --- |
| TGQVLKYVVGSQ | 0.711 ± 0.055 |
| TGRLDFSIQYYR | 0.6986 ± 0.0069 |
| TGSIMYDLEVDK | 0.6795 ± 0.0039 |
| TGYEVAGWVNWC | 0.711 ± 0.018 |
| THGFKQLTTPLD | 0.676 ± 0.014 |
| TIHKRTLEGSYN | 0.65 ± 0.048 |
| TILKKKNRRNKE | 0.697 ± 0.024 |
| TILLNWSQVHME | 0.7 ± 0.016 |
| TKKKQKIKKNNS | 0.748 ± 0.042 |
| TKKKTINRTQKQ | 0.713 ± 0.043 |
| TKKKTKKKEQKE | 0.6627 ± 0.0027 |
| TKKKTTNKIIKI | 0.671 ± 0.054 |
| TKKNDKIRIQKS | 0.741 ± 0.043 |
| TKSWSLNGTYLL | 0.703 ± 0.034 |
| TKTKKKKNKKQE | 0.719 ± 0.067 |
| TKTNKALKTSKI | 0.699 ± 0.061 |
| TLARLISGKRLL | 0.648 ± 0.022 |
| TLEGRQKEMGIA | 0.691 ± 0.037 |
| TLEHRHPAIHPE | 0.723 ± 0.046 |
| TLGKPVGLARLS | 0.692 ± 0.035 |
| TLKMKHKPKKNL | 0.6583 ± 0.0035 |
| TLLLLLPPLPSF | 0.598 ± 0.023 |
| TLSPPPLSPSAP | 0.711 ± 0.013 |

| Sequence | protein stability index |
| --- | --- |
| TLVLQFGRKRFG | 0.629 ± 0.013 |
| TLWLVSTAVLDC | 0.534 ± 0.036 |
| TNCNSHKLMAAL | 0.679 ± 0.011 |
| TNGYWVIACKKF | 0.672 ± 0.069 |
| TNTPSYSSRAEF | 0.733 ± 0.11 |
| TPGGPLLHSGFL | 0.755 ± 0.085 |
| TPGLVRVGSVSF | 0.708 ± 0.017 |
| TPLSSPHPSPPP | 0.595 ± 0.045 |
| TPMEKRQDANIN | 0.691 ± 0.015 |
| TPMPSCNHRPED | 0.655 ± 0.03 |
| TPPHNRERPTVQ | 0.657 ± 0.03 |
| TPPIPTTTSNFS | 0.734 ± 0.052 |
| TPPPASALPPSP | 0.705 ± 0.014 |
| TPPPRSFHRFPC | 0.694 ± 0.043 |
| TPPSPHPCPSPL | 0.797 ± 0.064 |
| TPPVPVPPPQLL | 0.748 ± 0.044 |
| TPTPGCYIASLT | 0.759 ± 0.21 |
| TQHKANQGLELI | 0.663 ± 0.008 |
| TQKESEKLNMSK | 0.667 ± 0.064 |
| TQNRCGGPSIAL | 0.634 ± 0.03 |
| TQRIEKEPTKKY | 0.703 ± 0.04 |
| TRCKLALEKLVG | 0.5986 ± 0.0015 |
| TRGMDYWLFTGD | 0.706 ± 0.0031 |

| Sequence | protein stability index |
| --- | --- |
| TRGPKYTMVVKR | 0.672 ± 0.017 |
| TRKESNTIHNEQ | 0.688 ± 0.014 |
| TRRGAAAEDQEK | 0.697 ± 0.065 |
| TRRVPNSRTGTI | 0.74 ± 0.072 |
| TRSLPSSSSHSL | 0.727 ± 0.011 |
| TRTCGRRRAGGR | 0.633 ± 0.1 |
| TRTRARAIQTAT | 0.6462 ± 0.0054 |
| TRWRPPCAPSGS | 0.742 ± 0.076 |
| TSAPDSPVPSLP | 0.695 ± 0.015 |
| TSGAQSTRLGRE | 0.778 ± 0.11 |
| TSIAKRNGLLPG | 0.719 ± 0.13 |
| TSIDIEWYNSLM | 0.589 ± 0.026 |
| TSIREVPAPCSH | 0.756 ± 0.032 |
| TSKYQENKQKKR | 0.7095 ± 0.0057 |
| TSLIPPASPFAW | 0.643 ± 0.11 |
| TSPPSLLFAMAR | 0.693 ± 0.038 |
| TSPTPPPTPCRS | 0.6927 ± 0.0067 |
| TSRPLHEQTVSP | 0.677 ± 0.025 |
| TSRTLKPGIPPA | 0.7033 ± 0.0013 |
| TSSPVFPFPPTP | 0.745 ± 0.042 |
| TSSSDCRSPAPP | 0.744 ± 0.038 |
| TSTDLKKTNLQN | 0.645 ± 0.021 |
